Measured values as given in article PMC4794775.

Assays:
[1] = biological target: RopB-CTD I255A (Streptococcus pyogenes (group A Streptococcus) strain MGAS10870); assay: SEC
[2] = biological target: full-length RopB (Streptococcus pyogenes (group A Streptococcus) strain MGAS10870)
[3] = biological target: RopB-CTD R226A (Streptococcus pyogenes (group A Streptococcus) strain MGAS10870); assay: SEC
[4] = biological target: RopB-CTD C222A (Streptococcus pyogenes (group A Streptococcus) strain MGAS10870); assay: SEC
[5] = biological target: RopB-CTD Y224H (Streptococcus pyogenes (group A Streptococcus) strain MGAS10870); assay: SEC
[6] = biological target: RopB-CTD C227Y (Streptococcus pyogenes (group A Streptococcus) strain MGAS10870); assay: SEC
[7] = biological target: RopB C-terminal domain (RopB-CTD, amino acids 56-280), wild type (Streptococcus pyogenes (group A Streptococcus) strain MGAS10870); assay: SEC
[8] = biological target: RopB-CTD R226Q (Streptococcus pyogenes (group A Streptococcus) strain MGAS10870); assay: SEC
[9] = biological target: RopB-CTD Y224A (Streptococcus pyogenes (group A Streptococcus) strain MGAS10870); assay: SEC

## RopB-CTD I255A (domain or fragment)
[1]
  stoichiometry N: 2

## full-length RopB (natural protein)
[2]
  stoichiometry N: > 6

## RopB-CTD R226A (domain or fragment)
[3]
  stoichiometry N: 2

## RopB-CTD C222A (domain or fragment)
[4]
  stoichiometry N: 2

## RopB-CTD Y224H (domain or fragment)
[5]
  stoichiometry N: 2

## RopB-CTD C227Y (domain or fragment)
[6]
  stoichiometry N: 2

## RopB C-terminal domain (RopB-CTD, amino acids 56-280), wild type (domain or fragment)
[7]
  stoichiometry N: 2

## RopB-CTD R226Q (domain or fragment)
[8]
  stoichiometry N: 2

## RopB-CTD Y224A (domain or fragment)
[9]
  stoichiometry N: 2
